Here are results for six molecules from publication PMC8795186, “Structural basis for safe and efficient energy conversion in a respiratory supercomplex” (Nature Communications, 2022).

Sequences and labels used below:
T1: cyt bcc-aa3 (III2-IV2) supercomplex; QcrB sites (Corynebacterium glutamicum, UniProt Q79VE9)
T1 construct: native supercomplex purified from C. glutamicum membranes in DDM; dimer of 13-subunit protomers; with Cytochrome bc1 complex Rieske iron-sulfur subunit; Cytochrome bc1 complex cytochrome c subunit; Cytochrome c oxidase subunit 1; Cytochrome c oxidase subunit 2; Cytochrome c oxidase subunit 3; Cytochrome c oxidase polypeptide 4; Supercomplex subunit P29; Supercomplex subunit P20; Supercomplex subunit P12; Supercomplex subunit P8; Supercomplex subunit P6; ThiX
T1 sequence (Q79VE9 1-539): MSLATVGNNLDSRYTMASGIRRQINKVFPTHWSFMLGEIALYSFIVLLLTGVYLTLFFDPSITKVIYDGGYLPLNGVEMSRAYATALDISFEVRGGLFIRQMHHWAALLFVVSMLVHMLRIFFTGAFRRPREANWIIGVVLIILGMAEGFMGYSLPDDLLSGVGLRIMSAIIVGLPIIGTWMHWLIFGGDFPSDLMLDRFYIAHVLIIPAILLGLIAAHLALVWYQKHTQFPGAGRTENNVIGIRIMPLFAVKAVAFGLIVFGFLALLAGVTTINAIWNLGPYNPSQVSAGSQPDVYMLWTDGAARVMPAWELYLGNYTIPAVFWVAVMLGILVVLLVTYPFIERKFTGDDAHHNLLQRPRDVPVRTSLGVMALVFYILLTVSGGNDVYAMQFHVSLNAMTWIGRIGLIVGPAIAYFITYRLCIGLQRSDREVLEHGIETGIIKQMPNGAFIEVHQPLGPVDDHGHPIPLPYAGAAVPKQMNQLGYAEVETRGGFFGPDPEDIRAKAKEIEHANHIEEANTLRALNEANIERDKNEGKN

T2: cyt bcc-aa3 (III2-IV2) supercomplex; quinone sites of the cyt bcc complex (QcrB/QcrA) (Corynebacterium glutamicum, UniProt Q79VE8+Q79VE9)
T2 construct: native supercomplex purified from C. glutamicum membranes in DDM; dimer of 13-subunit protomers; with Cytochrome bc1 complex cytochrome c subunit; Cytochrome c oxidase subunit 1; Cytochrome c oxidase subunit 2; Cytochrome c oxidase subunit 3; Cytochrome c oxidase polypeptide 4; Supercomplex subunit P29; Supercomplex subunit P20; Supercomplex subunit P12; Supercomplex subunit P8; Supercomplex subunit P6; ThiX
T2 sequence (Q79VE9 1-539): T1 sequence (Q79VE9 1-539)
T2 sequence (Q79VE8 1-408): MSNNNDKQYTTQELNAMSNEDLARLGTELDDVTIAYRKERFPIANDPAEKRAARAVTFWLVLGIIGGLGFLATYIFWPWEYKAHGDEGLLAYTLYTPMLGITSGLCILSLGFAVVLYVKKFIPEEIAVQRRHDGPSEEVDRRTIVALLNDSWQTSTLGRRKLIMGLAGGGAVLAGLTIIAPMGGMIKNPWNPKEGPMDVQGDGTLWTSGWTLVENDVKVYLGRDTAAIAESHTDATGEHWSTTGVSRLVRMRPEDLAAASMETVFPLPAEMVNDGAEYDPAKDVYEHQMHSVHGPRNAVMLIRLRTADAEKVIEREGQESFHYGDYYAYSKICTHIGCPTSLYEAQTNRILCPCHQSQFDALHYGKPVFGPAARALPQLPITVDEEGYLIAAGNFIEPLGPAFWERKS

T3: CtaD, subunit of the cyt aa3 oxidase (haem a, haem a3, CuB) (Corynebacterium glutamicum, UniProt Q79VD7 1-584, His265 covalently bound to Tyr269)
T3 construct: CtaD, catalytic subunit (haem a, haem a3, CuB) of the cytochrome aa3 oxidase, Corynebacterium glutamicum; source: endogenous, purified from C. glutamicum membranes as part of the supercomplex (DDM, DEAE Sepharose, size exclusion)
T3 sequence (looked up): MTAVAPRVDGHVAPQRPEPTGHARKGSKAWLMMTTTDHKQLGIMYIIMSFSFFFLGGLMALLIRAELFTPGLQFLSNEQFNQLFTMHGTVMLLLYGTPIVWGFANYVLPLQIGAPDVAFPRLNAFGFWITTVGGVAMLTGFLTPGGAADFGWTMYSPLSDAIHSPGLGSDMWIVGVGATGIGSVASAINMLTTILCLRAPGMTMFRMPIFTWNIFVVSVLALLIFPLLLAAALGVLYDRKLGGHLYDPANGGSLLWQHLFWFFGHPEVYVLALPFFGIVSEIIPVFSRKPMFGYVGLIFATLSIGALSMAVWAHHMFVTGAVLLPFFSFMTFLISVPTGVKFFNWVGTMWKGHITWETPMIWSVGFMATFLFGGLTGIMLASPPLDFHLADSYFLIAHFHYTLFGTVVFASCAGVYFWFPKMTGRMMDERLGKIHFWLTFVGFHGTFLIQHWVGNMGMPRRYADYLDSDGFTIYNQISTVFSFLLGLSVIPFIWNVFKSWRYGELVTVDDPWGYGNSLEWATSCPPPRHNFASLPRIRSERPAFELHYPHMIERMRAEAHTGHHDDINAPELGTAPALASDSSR

B1: QcrA, Rieske-type iron-sulfur subunit of the cyt bcc complex (natural protein, Corynebacterium glutamicum, UniProt Q79VE8 1-408, looked up)
chain: T2 sequence (Q79VE8 1-408)
notes: QcrA, Rieske-type iron-sulfur (2Fe-2S) subunit of the cytochrome bcc complex, Corynebacterium glutamicum; Carries the 2Fe-2S cluster (ligands His335, His355); QcrA crosses the dimer; also called QcrA´ (the copy of the second protomer); Rieske homologous subunit; source: endogenous, purified from C. glutamicum membranes as part of the supercomplex (DDM, DEAE Sepharose, size exclusion)
B2: CtaE, subunit of the cyt aa3 oxidase (natural protein, Corynebacterium glutamicum, UniProt Q9AEL8 1-205, looked up)
chain: MTSAVGNTGMAAPQRVAALNRPNMVSVGTIVFLSQELMFFAGLFAMYFVSRANGLANGSWGEQTDHLNVPYALLITVILVSSSVTCQFGVFAAERGDVYGLRKWFLVTIILGSIFVIGQGYEYITLVGHGLTIQSSVYGSAFFITTGFHALHVIAGVMAFVVVLMRIHKSKFTPAQATAAMVVSYYWHFVDVVWIGLFITIYFIQ
notes: CtaE, subunit of the cytochrome aa3 oxidase, Corynebacterium glutamicum; source: endogenous, purified from C. glutamicum membranes as part of the supercomplex (DDM, DEAE Sepharose, size exclusion)
B3: CtaF, subunit of the cyt aa3 oxidase (natural protein, Corynebacterium glutamicum, UniProt Q8NNK3 1-143, looked up)
chain: MKSSAKLMYGPTVFMAAMAVIYIFATMHVSDGGSVKGVEWVGSVALVLSAGLTLMLGVYLHFTEVRVDVLPEDWEEAEVADKAGTLGFFSPSSIWPAAMSGAVGFLAFGVVYFHYWMIAVGLMLLIFTITKLNLQYGVPKEKH
notes: CtaF, subunit of the cytochrome aa3 oxidase, Corynebacterium glutamicum; source: endogenous, purified from C. glutamicum membranes as part of the supercomplex (DDM, DEAE Sepharose, size exclusion)
B4: QcrB, cytochrome b subunit of the cyt bcc complex (natural protein, Corynebacterium glutamicum, UniProt Q79VE9 1-539, looked up)
chain: T1 sequence (Q79VE9 1-539)
notes: QcrB, cytochrome b subunit (haem bL, haem bH) of the cytochrome bcc complex, Corynebacterium glutamicum; has a 102 residue C-terminal extension; source: endogenous, purified from C. glutamicum membranes as part of the supercomplex (DDM, DEAE Sepharose, size exclusion)

The target of data set [1] is T1, cyt bcc-aa3 (III2-IV2) supercomplex; QcrB sites. As to the kind of experiment: cryo-EM structure; absorption spectroscopy. Format: binding. The settings on record: co-purified endogenous pigment; narrow tunnel of QcrB near Qo site.
The target in data set [2] is T2, cyt bcc-aa3 (III2-IV2) supercomplex; quinone sites of the cyt bcc complex (QcrB/QcrA). As to the kind of experiment: cryo-EM structure, […] Å. The format is binding. The note with it: 20 µM stigmatellin, 2.5 mM azide also present; Qo site, transition-state analogue; QcrB and His355 of QcrA.
Data set [3] deals with the molecule itself. The data set can be described thus: cryo-EM structure; supercomplex purified from C. glutamicum membranes in DDM, 10 mg/ml; with 20 µM stigmatellin and 2.5 mM sodium azide (2.8 Å) and as isolated (3.1 Å).
For data set [4], the target named is B4. The data set is described as above. The settings on record: both partners purified.
Data set [5] addresses T3, CtaD, subunit of the cyt aa3 oxidase …. The description is as above. The settings on record: both partners purified.

Turning to `CC(C)=CCC/C(C)=C/C=C/C(C)=C/C=C/C(C)=C/C=C/C=C(C)/C=C/C=C(C)/C=C/C=C(\C)CCC=C(C)C` [lycopene], in data set [1], the “cryo-EM structure; absorption spectroscopy” value was “a lycopene molecule is resolved in a narrow tunnel of QcrB”. Regarding `C/C=C(C)/C=C/C=C/[C@H](OC)[C@@H](C)[C@@H](OC)[C@@H](C)CCc1oc2c(O)c(OC)cc(OC)c2c(=O)c1C` [stigmatellin], the “cryo-EM structure, 2.8 Å” value in data set [2] is “The cryo-EM map clearly resolves stigmatellin bound between FeS and haem bL”.

Consider B1, for which the binding result in data set [3] and in data set [4] was “binds” in each case. Turning to B2, the binding result in data set [4] was “binds”. As to B3, in data set [4], the binding result was “binds”. Turning to B4, the binding result in data set [5] was “binds”.
